In EP1657250A1, “HLA-A *01-binding T-cell epitope of WT1” (Charité - Universitätsmedizin Berlin, priority 2004, dated 2006):
“Also recorded” adds a separate entry of the source.

Key:
immunoproteasome = target: T1, immunoproteasome (Homo sapiens, UniProt P28062+P28065+P40306); assay: In vitro proteasome digestion of the precursor peptide, immunoproteasome; assay type: biochemical; details: 6 h incubation; Edman sequencing and MALDI-TOF
T1 construct: Proteasomes were isolated from the EBV-transformed B-cell line; endogenous in cells; host or cells: LCL-721 (EBV-transformed B-cell line)
Experimental: (§1) Purification of 20S proteasomes, in vitro degradation of WT1.314-336 (SEQ ID NO: 6), and separation and analysis of cleavage products were performed as described (16). 10 nmol (27.6 µg) of WT1.314-336 were incubated for 6 h with 2 µg immunoproteasome or with 2 µg of constitutive proteasome, respectively, in digestion buffer (20 mM Tris-HCI; pH 7.6; 10 mM NaCl; 10 mM KCI; 2 mM MgCl2; 0.5 mM DTT) and the reaction stopped by freezing the reaction mixture at -80°C.
(§2) One crucial prerequisite for a peptide to be presented as a T-cell epitope is its proper excision from the protein. We analyzed in vitro digestion of the […] WT1-derived peptide 314-336 (SEQ ID NO: 6) encompassing the WT1.317-327 epitope […] (SEQ ID NO: 1) by constitutive as well as immunoproteasomes (Fig. 2). Proteasomes were isolated from the EBV-transformed B-cell line LCL-721.174 (constitutive proteasome) and the parental cell line LCL-721 (immunoproteasome, ref. 16) and were used for digestion with a 6-hour incubation period. A combination of Edman sequencing and MALDI-TOF mass spectrometry was subsequently performed to determine the identity and quantity of peptides generated after proteasome digestion. The amount of fragments detected is indicated.

constitutive proteasome = target: T2, constitutive proteasome (Homo sapiens, UniProt P28072+P28074+Q99436); assay: In vitro proteasome digestion of the precursor peptide, constitutive proteasome; assay type: biochemical; details: 6 h incubation; Edman sequencing and MALDI-TOF
T2 construct: Proteasomes were isolated from the EBV-transformed B-cell line; endogenous in cells; host or cells: LCL-721.174 (EBV-transformed B-cell line)
Experimental: as §1, §2

With “WT1.314-336: WT1-derived precursor peptide 314-336 encompassing the WT1.317-327 epitope (ASETSEKRPFMCAYPGCNKRYFK)” the “generation of C-terminal residue Tyr-327 (fragments detected)” value (immunoproteasome) was “generated as the major fragment (314-327); also recorded: complementary fragment 328-336 represented the other major fragment”, the “processing of the N-terminus” value (immunoproteasome) was “No processing of the N-terminus was observed” and the “cleavage site C-terminal to Tyr-327 (fragments detected)” value (constitutive proteasome) was “fragment 328-336 was efficiently generated”. The “processing of the N-terminus Thr-317” value (constitutive proteasome) was “a fragment was found sharing the N-terminus Thr-317 (T)”.
